Where a chain is given by its changes, count along the chain named.
B1: Clone 3C3 VHH (secreted VHH in TG1 supernatant) (VHH)
VHH: QVQLVDSGGGLVQAGGSLRVSCAASGLTVSSEHMGWFRQAPGKQREFVAAISGNGGSTYYADSVKGRFTISRDNAKNTVYLQMNSLKPEDTAVYTCAADRQVWRVTSYHDYDYDSWGQGTLVTVSS
notes: Expressed from phagemid pADL-23c
B2: Clone 1D7 VHH (secreted VHH in TG1 supernatant) (VHH)
VHH: QVQLQESGGGLVQAGGSLRLSCAASGFTFDDYAIGWFRQAPGKEREGVSCISNIDGRTYYADSVKGRFTISSDNAKNTVYLQMNSLKPEDTAVYYCAAEGLHSCRDLYYGMDYWGKGTLVTVSS
notes: as for B1
B3: Clone 1E2 VHH (secreted VHH in TG1 supernatant) (VHH)
VHH: B2 VHH with S103P
notes: as for B1
B4: Clone 1B3 VHH (secreted VHH in TG1 supernatant) (VHH)
VHH: B2 VHH with R57H, R105K
notes: as for B1
B5: Clone 2B10 VHH (secreted VHH in TG1 supernatant) (VHH)
VHH: B2 VHH with Q5V, R57S, H102R
notes: as for B1
B6: Clone 2G7 VHH (secreted VHH in TG1 supernatant) (VHH)
VHH: B2 VHH with Q3K, Q5E, R57S, Y113H
notes: as for B1
B7: Clone 2G1 VHH (secreted VHH in TG1 supernatant) (VHH)
VHH: B2 VHH with N53S, R57S, S72R, A75D, A97T, L119Q
notes: as for B1
B8: Clone 2E7 VHH (secreted VHH in TG1 supernatant) (VHH)
VHH: B2 VHH with F27V, T28P, R57S
notes: as for B1
B9: Clone 1B1 VHH (secreted VHH in TG1 supernatant) (VHH)
VHH: B2 VHH with R19K, D30N, R38P, S52I, R57S, T69P
notes: as for B1

The binders below were run against T1, hu-CD8A ECD (recombinant, coated on ELISA plates) (human, UniProt P01732 22-182) (assay: ELISA, VHH supernatants on hu-CD8A ECD coated plates).
T1 construct: also called Human CD8A ECD; not shown: C-terminal (His)x6 or Fc tag
T1 sequence (P01732 22-182): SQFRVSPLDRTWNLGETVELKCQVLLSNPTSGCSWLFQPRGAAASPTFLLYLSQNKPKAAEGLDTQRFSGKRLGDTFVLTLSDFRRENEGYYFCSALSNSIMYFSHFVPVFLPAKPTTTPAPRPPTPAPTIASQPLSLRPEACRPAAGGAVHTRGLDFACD
B1: binds. B2: binds. B3: binds. B4: binds. B5: binds. B6: binds. B7: binds. B8: binds. B9: binds.

Source: patent US20260209353A1 (BINACEA PHARMA, published 2026)
